From the supplement of paper PMC10567573 come the findings set out here.

B1: PDLIM4 (parent)
chain: FLDERLYCESHAKARVKPPEGYDV
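Further: lentivirally expressed fusions sorted by FACS into six bins by GFP to DsRed ratio, PSI derived from sequencing read proportions per bin multiplied by bin number.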

Variants of B1 are the subject of this data set. Briefly: protein stability index of a GFP-peptide fusion (GPS, HEK-293T) (PSI 1-6); higher = more stable. The note with it: c terminus: a fixed tail appended.
On to FLDERLHCESHAKARVKPPEGYDV [Y7H], for which the protein stability index turned out to be 4.05.
The figure for FLDERLACESHAKARVKPPEGYDV [Y7A] is 2.63.
The figure for FLDERLTCESHAKARVKPPEGYDV [Y7T] is 5.4.
The result for FLDERLQCESHAKARVKPPEGYDV [Y7Q] reads 4.26; that for FLDERLDCESHAKARVKPPEGYDV [Y7D], 4.71.
For FLDERLGCESHAKARVKPPEGYDV [Y7G], the protein stability index came to 2.04.
The figure for FLDERLLCESHAKARVKPPEGYDV [Y7L] is 3.18; for FLDERLECESHAKARVKPPEGYDV [Y7E] it is 4.06; for FLDERLRCESHAKARVKPPEGYDV [Y7R] it is 3.99.
With FLDERLVCESHAKARVKPPEGYDV [Y7V], the protein stability index was 3.85.
The result for FLDERLKCESHAKARVKPPEGYDV [Y7K] reads 4.06; that for FLDERLICESHAKARVKPPEGYDV [Y7I], 3.6; that for FLDERLFCESHAKARVKPPEGYDV [Y7F], 2.79.
The figure for FLDERLMCESHAKARVKPPEGYDV [Y7M] is 3.6.
For the variant FLDERLPCESHAKARVKPPEGYDV [Y7P], the protein stability index was found to be 4.5.
On to FLDERLSCESHAKARVKPPEGYDV [Y7S], for which the protein stability index is 3.89.
Take FLDERLCCESHAKARVKPPEGYDV [Y7C]: the protein stability index is 3.66.
Regarding FLDERLNCESHAKARVKPPEGYDV [Y7N], the protein stability index stood at 4.26.
In the case of FLDERLYCEEHAKARVKPPEGYDV [S10E], the protein stability index is 2.1.
The figure for FLDERLYCEQHAKARVKPPEGYDV [S10Q] is 1.88; for FLDERLYCEWHAKARVKPPEGYDV [S10W] it is 3.67.
Turning to FLDERLYCEHHAKARVKPPEGYDV [S10H], the protein stability index was determined as 1.58.
The figure for FLDERLYCEVHAKARVKPPEGYDV [S10V] is 1.4.
The figure for FLDERLYCEPHAKARVKPPEGYDV [S10P] is 2.32; for FLDERLYCEFHAKARVKPPEGYDV [S10F] it is 1.61; for FLDERLYCECHAKARVKPPEGYDV [S10C] it is 1.95.
Turning to FLDERLYCENHAKARVKPPEGYDV [S10N], the protein stability index was found to be 1.26.
The result for FLDERLYCELHAKARVKPPEGYDV [S10L] reads 2.69; that for FLDERLYCEIHAKARVKPPEGYDV [S10I], 2.17; that for FLDERLYCEMHAKARVKPPEGYDV [S10M], 2.54.
The result for FLDERLYCEDHAKARVKPPEGYDV [S10D] reads 2.01; that for FLDERLYCEYHAKARVKPPEGYDV [S10Y], 2.75.
The result for FLDERLYCETHAKARVKPPEGYDV [S10T] reads 1.79.
FLDERLYCEKHAKARVKPPEGYDV [S10K]: the protein stability index is 2.12.
The result for FLDERLYCEGHAKARVKPPEGYDV [S10G] reads 1.97; that for FLDERLYCEAHAKARVKPPEGYDV [S10A], 1.44.
The figure for FLDERLYCESHAKAMVKPPEGYDV [R15M] is 1.18.
On to FLDERLYCESHAKAWVKPPEGYDV [R15W], for which the protein stability index is 3.92.
The result for FLDERLYCESHAKALVKPPEGYDV [R15L] reads 2.41.
Consider FLDERLYCESHAKAYVKPPEGYDV [R15Y], for which the protein stability index is 1.58.
As for FLDERLYCESHAKANVKPPEGYDV [R15N], the protein stability index came out at 1.53.
Regarding FLDERLYCESHAKAKVKPPEGYDV [R15K], the protein stability index was 2.18.
The figure for FLDERLYCESHAKATVKPPEGYDV [R15T] is 1.67.
The result for FLDERLYCESHAKAIVKPPEGYDV [R15I] reads 2.03; that for FLDERLYCESHAKAGVKPPEGYDV [R15G], 1.7.
FLDERLYCESHAKACVKPPEGYDV [R15C]: the protein stability index was 1.97.
The figure for FLDERLYCESHAKAQVKPPEGYDV [R15Q] is 2.41; for FLDERLYCESHAKAHVKPPEGYDV [R15H] it is 3.03.
The result for FLDERLYCESHAKAFVKPPEGYDV [R15F] reads 2.33.
As to FLDERLYCESHAKADVKPPEGYDV [R15D], the protein stability index was determined as 1.93.
Turning to FLDERLYCESHAKAVVKPPEGYDV [R15V], the protein stability index stood at 1.77.
Take FLDERLYCESHAKAPVKPPEGYDV [R15P]: the protein stability index worked out at 1.26.
FLDERLYCESHAKAEVKPPEGYDV [R15E]: the protein stability index was determined as 1.34.
The result for FLDERLYCESHAKAAVKPPEGYDV [R15A] reads 2.13.
The result for FLDERLYCESHAKARVAPPEGYDV [K17A] reads 1.91.
Turning to FLDERLYCESHAKARVFPPEGYDV [K17F], the protein stability index is 2.12.
The result for FLDERLYCESHAKARVDPPEGYDV [K17D] reads 1.27.
The result for FLDERLYCESHAKARVIPPEGYDV [K17I] reads 1.33.
The result for FLDERLYCESHAKARVCPPEGYDV [K17C] reads 1.99; that for FLDERLYCESHAKARVLPPEGYDV [K17L], 2.56; that for FLDERLYCESHAKARVEPPEGYDV [K17E], 2.08.
As for FLDERLYCESHAKARVHPPEGYDV [K17H], the protein stability index is 1.88.
With FLDERLYCESHALARVKPPEGYDV [K13L], the protein stability index is 1.45.
The result for FLDERLYCESHANARVKPPEGYDV [K13N] reads 1.36; that for FLDERLYCESHAIARVKPPEGYDV [K13I], 2.71; that for FLDERLYCESHAMARVKPPEGYDV [K13M], 2.85.
With FLDERLYCESHAHARVKPPEGYDV [K13H], the protein stability index was determined as 2.18.
The figure for FLDERLYCESHAGARVKPPEGYDV [K13G] is 1.72; for FLDERLYCESHADARVKPPEGYDV [K13D] it is 1.32.
The result for FLDERLYCESHAYARVKPPEGYDV [K13Y] reads 2.63; that for FLDERLYCESHACARVKPPEGYDV [K13C], 1.21.
With FLDERLYCESHAQARVKPPEGYDV [K13Q], the protein stability index came to 1.61.
Regarding FLDERLYCESHAPARVKPPEGYDV [K13P], the protein stability index is 2.24.
The result for FLDERLYCESHAKARNKPPEGYDV [V16N] reads 1.96.
Regarding FLDERLYCESHAKARYKPPEGYDV [V16Y], the protein stability index was determined as 1.51.
On to FLDERLYCESHAKARCKPPEGYDV [V16C], for which the protein stability index was found to be 1.43.
With FLDERLYCESHAKARAKPPEGYDV [V16A], the protein stability index is 1.75.
The figure for FLDERLYCESHAKARIKPPEGYDV [V16I] is 1.62; for FLDERLYCESHAKARTKPPEGYDV [V16T] it is 3.71; for FLDERLYCESHAKARPKPPEGYDV [V16P] it is 1.64.
The figure for FLDERLYCESHAKARQKPPEGYDV [V16Q] is 1.22.
FLDERLYCESHAKARMKPPEGYDV [V16M]: the protein stability index was determined as 1.53.
Consider FLDERLYCESHAKARRKPPEGYDV [V16R], for which the protein stability index was 1.5.
FLDERLYCESHAKARHKPPEGYDV [V16H]: the protein stability index was 1.92.
For FLDERLYCESHAKARWKPPEGYDV [V16W], the protein stability index turned out to be 2.7.
With FLDERLYCESHAKARKKPPEGYDV [V16K], the protein stability index came to 3.09.
The figure for FLDERLYCESHAKARGKPPEGYDV [V16G] is 1.57.
Regarding FLDERLYCESHAKARDKPPEGYDV [V16D], the protein stability index turned out to be 2.14.
The figure for FLDERLYCESHAKARSKPPEGYDV [V16S] is 3.79.
The figure for FLDERLYCESYAKARVKPPEGYDV [H11Y] is 2.18; for FLDERLYCESKAKARVKPPEGYDV [H11K] it is 1.64.
For FLDERLYCESLAKARVKPPEGYDV [H11L], the protein stability index came to 1.48.
Take FLDERLYCESNAKARVKPPEGYDV [H11N]: the protein stability index is 1.86.
The figure for FLDERLYCESCAKARVKPPEGYDV [H11C] is 1.04.
